Laboratory results taken from PMC7475177, “[…] RESPONSE FACTOR39–MYB8 complex regulates low-temperature-induced lignification of loquat fruit”.

B1: Ej4CL1 promoter DRE1 probe (dsDNA)
DNA 1: TCGCCTTGTTGGTTATGCCGACGCAGGATACTTGTCTG
DNA 2: CAGACAAGTATCCTGCGTCGGCATAACCAACAAGGCGA
B2: Ej4CL1 promoter DRE2 probe (dsDNA)
DNA 1: GTTCACAAGACAATCTGGCCGACCTCTTCACAAAATCAGT
DNA 2: ACTGATTTTGTGAAGAGGTCGGCCAGATTGTCTTGTGAAC

Target: EjERF39 (Eriobotrya japonica cv. Luoyangqing …, UniProt A0A482LZG5 1-253)
Test: EMSA; not given in the material; EMSA as described by Ge et al. (2017)
Details: protein: recombinant; tags: GST (pGEX-4T-1); label: 3' biotin

Sequence of EjERF39 (A0A482LZG5 entry or part of it): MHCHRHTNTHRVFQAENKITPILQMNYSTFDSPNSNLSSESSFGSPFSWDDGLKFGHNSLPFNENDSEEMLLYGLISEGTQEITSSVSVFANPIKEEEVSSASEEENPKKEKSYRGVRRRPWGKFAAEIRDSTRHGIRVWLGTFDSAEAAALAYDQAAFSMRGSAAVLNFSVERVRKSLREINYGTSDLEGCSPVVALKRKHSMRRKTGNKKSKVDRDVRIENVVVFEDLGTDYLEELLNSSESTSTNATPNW

Binder	binding result
B1	no binding
B2	binds
